Measurements published in patent publication US20070128192A1.

Legend:
[1] = target: human IL-13 (human) (UniProt P35225); assay: cell-based or functional assay
[2] = target: human IL-13 variant (Q130R), baculovirus expressed, carboxyl terminus affinity tag (human) (UniProt P35225)

| Binder | IC50, TF-1 cell proliferation assay [1] [pM] | IC50 (read off the curve); TF-1 cell proliferation, 25 ng/ml human IL-13 variant (Q130R) [2] [pM] |
| --- | --- | --- |
| BAK1187B4 scFv (scFv, part only; not given: Linker, part only) scFv, part: QVQLVQSGAEVKKPGASVKVSCKASGYTFTNYGLSWVRQAPGQGLEWMGWIDDDSGTTIYGQEFQGRVTMTTDTSTSTAYMELRSLRSDDTAVYYCARDSSSSWARWFFDLWGRGTLVTVSSSYVLTQPPSVSVAPGKTARITCGGNIIGSKLVHWYQQKPGQAPVLVIYDDGDRPSGIPERFSGSNSGNTATLTISRVEAGDEADYYCQVWDTGSDPVVFGGGTKLTVL | 100 | – |
| BAK1166G2 scFv (scFv, part only; not given: Linker, part only) scFv, part: QVQLVQSGAEVKKPGASVKVSCKASGYTFANTGISWVRQAPGQGLEWMGWISANNGDTNYGQEFQGRVTMTTDTSTSTAYMELRSLRSDDTAVYYCARDSSSSWARWFFDLWGRGTLVTVSSSYVLTQPPSVSVAPGKTARITCGGNIIGSKLVHWYQQKPGQAPVLVIYDDGDRPSGIPERFSGSNSGNTATLTISRVEAGDEADYYCQVWDTGSDPVVFGGGTKLTVL | 200 | – |
| BAK1167F2 scFv (scFv, part only; not given: Linker, part only) scFv, part: QVQLVQSGAEVKKPGASVKVSCKASGYTFEQTGVSWVRQAPGQGLEWMGWISANNGDTNYGQEFQGRVTMTTDTSTSTAYMELRSLRSDDTAVYYCARDSSSSWARWFFDLWGRGTLVTVSSSYVLTQPPSVSVAPGKTARITCGGNIIGSKLVHWYQQKPGQAPVLVIYDDGDRPSGIPERFSGSNSGNTATLTISRVEAGDEADYYCQVWDTGSDPVVFGGGTKLTVL | 200 | – |
| BAK1185E1 scFv (scFv, part only; not given: Linker, part only) scFv, part: QVQLVQSGAEVKKPGASVKVSCKASGYTFTNYGLSWVRQAPGQGLEWMGWINDATGDTQYGQEFQGRVTMTTDTSTSTAYMELRSLRSDDTAVYYCARDSSSSWARWFFDLWGRGTLVTVSSSYVLTQPPSVSVAPGKTARITCGGNIIGSKLVHWYQQKPGQAPVLVIYDDGDRPSGIPERFSGSNSGNTATLTISRVEAGDEADYYCQVWDTGSDPVVFGGGTKLTVL | 200 | – |
| BAK1105H3 scFv (scFv, V domains shown, part only, scFv linker not given) VH: QVQLVQSGAEVKKPGASVKVSCKASGYTFTNYGLSWVRQAPGQGLEWMGWISGLNGETLYGQEFQGRVTMTTDTSTSTAYMELRSLRSDDTAVYYCARDSSSSWARWFFDLWGRGTLVTVSS VL: SYVLTQPPSVSVAPGKTARITCGGNIIGSKLVHWYQQKPGQAPVLVIYDDGDRPSGIPERFSGSNSGNTATLTISRVEAGDEADYYCQVWDTGSDPVVFGGGTKLTVL | 200 | – |
| BAK1185F8 scFv (scFv, V domains shown, part only, scFv linker not given) VH: QVQLVQSGAEVKKPGASVKVSCKASGYTFTDYGLSWVRQAPGQGLEWMGWIRNIDGYTIYGQEFQGRVTMTTDTSTSTAYMELRSLRSDDTAVYYCARDSSSSWARWFFDLWGRGTLVTVSS VL: SYVLTQPPSVSVAPGKTARITCGGNIIGSKLVHWYQQKPGQAPVLVIYDDGDRPSGIPERFSGSNSGNTATLTISRVEAGDEADYYCQVWDTGSDPVVFGGGTKLTVL | 200 | – |
| BAK1111D10 scFv (scFv, V domains shown, part only, scFv linker not given) VH: QVQLVQSGAEVKKPGASVKVSCKASGYTFTNYGLSWVRQAPGQGLEWMGWIATPDGQTSYGQEFQGRVTMTTDTSTSTAYMELRSLRSDDTAVYYCARDSNSSWARWFFDLWGRGTLVTVSS VL: SYVLTQPPSVSVAPGKTARITCGGNIIGSKLVHWYQQKPGQAPVLVIYDDGDRPSGIPERFSGSNSGNTATLTISRVEAGDEADYYCQVWDTGSDPVVFGGGTKLTVL | 200 | – |
| BAK1184C8 scFv (scFv, V domains shown, part only, scFv linker not given) VH: QVQLVQSGAEVKKPGASVKVSCKASGYTFTNYGLSWVRQAPGQGLEWMGWISGSNGYTSYGQEFQGRVTMTTDTSTSTAYMELRSLRSDDTAVYYCARDSSSSWARWFFDLWGRGTLVTVSS VL: SYVLTQPPSVSVAPGKTARITCGGNIIGSKLVHWYQQKPGQAPVLVIYDDGDRPSGIPERFSGSNSGNTATLTISRVEAGDEADYYCQVWDTGSDPVVFGGGTKLTVL | 200 | – |
| BAK278D6 scFv (scFv, V domains shown) VH: EVQLVQSGAEVKKPGASVKVSCKASGYTFRNYGLSWVRQAPGQGLEWMGWISANNGDTNYGQEFQGRITMTTETSTNTAHMELRSLRSDDTAVYYCVRDSSSNWARWFFDLWGKGTMVTVSS VL: SYVLTQPPSVSVAPGQTARIPCGGNNIGSKLVHWYQQKPGQAPVLVVYDDGDRPSGIPERFSGSNSGNTATLTISRIDAGDEADYYCQVWDTGSDPVVFGGGTKLTVL | – | 80000 |
| BAK1167F4 scFv (scFv, V domains shown, part only, scFv linker not given) VH: QVQLVQSGAEVKKPGASVKVSCKASGYTFIDTGVSWVRQAPGQGLEWMGWISANNGDTNYGQEFQGRVTMTTDTSTSTAYMELRSLRSDDTAVYYCARDSSSSWARWFFDLWGRGTLVTVSS VL: SYVLTQPPSVSVAPGKTARITCGGNIIGSKLVHWYQQKPGQAPVLVIYDDGDRPSGIPERFSGSNSGNTATLTISRVEAGDEADYYCQVWDTGSDPVVFGGGTKLTVL | 200 | – |
